# Laboratory results reported in patent US20170362327A1.
# B1: MNAC13 mouse antibody (antibody, mouse IgG1, kappa)
# heavy: EVKLVESGGGLVQPGGSLKLSCAASGFTFSTYTMSWARQTPEKRLEWVAYISKGGGSTYYPDTVKGRFTISRDNAKNTLYLQMSSLKSEDTALYYCARGAMYGNDFFYPMDYWGQGTSVTVSSKTTPPSVYPLAPGSAAQTNSMVTLGCLVKGYFPEPVTVTWNSGSLSSGVHTFPAVLESDLYTLSSSVTVPSSPRPSETVTCNVAHPASSTKVDKKIVPRDCGCKPCICTVPEVSSVFIFPPKPKDVLTITLTPKVTCVVVDISKDDPEVQFSWFVDDVEVHTAQTQPREEQFNSTFRSVSELPIMHQDWLNGKEFKCRVNSAAFPAPIEKTISKTKGRPKAPQVYTIPPPKEQMAKDKVSLTCMITDFFPEDITVEWQWNGQPAENYKNTQPIMNTNGSYFVYSKLNVQKSNWEAGNTFTCSVLHEGLHNHHTEKSLSHSPGK
# light: QIVLTQSPAIMSASLGEEITLTCSASSSVSYMHWYQQKSGTSPKLLIYTTSNLASGVPSRFSGSGSGTFYSLTISSVEAEDAADYYCHQWSSYPWTFGGGTKLEIKADAAPTVSIFPPSSEQLTSGGASVVCFLNNFYPKDINVKWKIDGSERQNGVLNSWTDQDSKDSTYSMSSTLTLTKDEYERHNSYTCEATHKTSTSPIVKSFNRNEC
# Molecular target: human TrkA on the surface of TF-1 cells (human), P04629
# Sequence (P04629 33-796): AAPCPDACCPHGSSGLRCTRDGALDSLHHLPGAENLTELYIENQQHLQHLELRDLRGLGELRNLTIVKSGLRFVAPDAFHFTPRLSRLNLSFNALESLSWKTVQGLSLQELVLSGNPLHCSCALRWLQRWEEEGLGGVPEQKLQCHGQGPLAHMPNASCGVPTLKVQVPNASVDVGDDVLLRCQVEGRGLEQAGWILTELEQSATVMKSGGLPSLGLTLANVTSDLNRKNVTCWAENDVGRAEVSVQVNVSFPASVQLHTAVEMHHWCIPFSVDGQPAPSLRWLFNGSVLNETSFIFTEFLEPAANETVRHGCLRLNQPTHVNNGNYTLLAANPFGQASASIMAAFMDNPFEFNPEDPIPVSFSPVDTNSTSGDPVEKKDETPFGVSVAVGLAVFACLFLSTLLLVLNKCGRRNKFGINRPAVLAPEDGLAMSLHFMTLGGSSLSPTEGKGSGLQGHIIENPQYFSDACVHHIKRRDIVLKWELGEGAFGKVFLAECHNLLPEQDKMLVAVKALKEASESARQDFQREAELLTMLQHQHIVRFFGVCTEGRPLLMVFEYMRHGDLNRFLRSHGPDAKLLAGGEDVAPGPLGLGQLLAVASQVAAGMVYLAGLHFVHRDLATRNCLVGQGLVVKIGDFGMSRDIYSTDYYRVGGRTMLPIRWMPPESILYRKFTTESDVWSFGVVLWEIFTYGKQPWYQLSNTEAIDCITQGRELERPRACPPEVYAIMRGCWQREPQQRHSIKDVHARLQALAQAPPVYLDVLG
# Assay: cell-based or functional assay
binder,measurement,value
B1,TF-1 cell proliferation assay IC50 (beta-NGF induced proliferation),0.23 µg/mL
